Assay results reported in paper PMC3745449.

Assays:
[1] = biological target: His6-tagged N-terminal domain of turkey pancreatic lipase (turkey)
[2] = biological target: His6-tagged N-terminal domain of turkey pancreatic lipase (turkey); remark: listed apart in the source

- time for which N-TPL stays active in tributyrin (TC4) hydrolysis (pH-Stat, pH 8.5, 37°C) with colipase; without colipase the activity is lost after 3 min [1]: > 8 min
- increase of N-TPL lipase activity on tributyrin (TC4) when colipase is present in the hydrolysis medium [2]: 15%
Substance: Turkey colipase (natural protein)
